Reference: US7258861B2, “TNF-derived peptides for use in treating oedema” (Innogenetics N.V., priority 2001, dated 2007)
Positions of bridges follow the written chain, without caps; N, C: chain ends. No end group written: not given here. *: point of attachment. Biotin = O=C1N[C@H]2[C@H](CS[C@H]2CCCCC(=O)*)N1

B1: mutTNF: E.coli-derived recombinant (T104A-E106A-E109A) triple TNF mutant (protein, UniProt P06804 1-235, looked up, variant T104A E106A E109A)
chain: MSTESMIRDVELAEEALPQKMGGFQNSRRCLCLSLFSFLLVAGATTLFCLLNFGVIGPQRDEKFPNGLPLISSMAQTLTLRSSSQNSSDKPVAHVVANHQVEEQLEWLSQRANALLANGMDLKDNQLVVPADGLYLVYSQVLFKGQGCPDYVLLTHTVSRFAISYQEKVNLLSAVKSPCPKDAPAGAALKPWYEPIYLGGVFQLEKGDQLSAEVNLPKYLDFAESGQVYFGVIAL

How the values were obtained:
isolated rat lungs = assay: Isolated lung perfusion experiments (blood perfused, flooded with NaCl); details: after injection of 2 ml NaCl solution; 1 mg/lung
Method: Lungs of female Whistar rats weighing about 300 g were isolated as described in DeCampos et al. (1993). The lungs were injected intratracheally with either 500 μl of sterile […], wild type murine TNF (1 μg/lung) or mTNF tip peptide (Ltip (SEQ ID NO:6), see above; 1 mg/lung). Subsequently, the lungs were perfused with blood isolated from the same rat. Thirty minutes later, the lungs were injected intratracheally with 2 ml of sterile […] solution which leads to a weight increase of about 2 g (FIG. 5). The weight evolution was then followed continuously for 150 min (FIG. 5).

[1] = tested on: resident peritoneal macrophages; assay: Whole-cell patch clamp in resident peritoneal macrophages; assay type: cell-based, mouse; details: 30 min preincubation, acidic pH
Excerpt: (§1) Animals, cells and reagents. Male CBA/J or C57BL/6 mice, as well as male TNFR ½^0/0 C57BL/6 mice deficient in TNF receptors (Bruce et al., 1996) provided by H. Bluethmann, F. Hoffmann-La Roche, Basel, Switzerland, were used at the age of 8–10 weeks. Their care was in accordance with institutional guidelines. Lung microvascular endothelial cells were isolated from CBA/J mice and characterized as described (Jackson et al., 1990) using magnetic beads (Dynabeads M-450, Dynal, Oslo, Norway), covalently bound to a purified rat-anti-mouse PECAM-1 monoclonal antibody (donated by B. Imhof, University of Geneva). Microvascular lung endothelial cells were resuspended in DMEM containing 2 mM L-glutamine, 100 U/ml penicillin, […], 20% FCS, 40 U/ml heparin and […] endothelial cell growth supplement (Brunschwig Chemie, Basel, Switzerland). For patch clamp experiments, cells were plated onto 35×10 mm easy grip Petri dishes (Beckton Dickinson, Plymouth, UK), pre-coated with 0.2% gelatin (Sigma, Buchs, Switzerland). Resident peritoneal macrophages, isolated in ice cold RPMI containing antibiotics and 10 U/ml Heparin, were left to adhere onto 35×10 mm easy grip Petri dishes for 4 h, after which the non-adherent cells were removed. […]
(§2) Electrophysiology. […] Currents were recorded with an Axopatch-200A amplifier (Axon Instrument Inc, Foster City, Calif., USA), low pass-filtered at 1 kHz. […]

[2] = tested on: lung microvascular endothelial cells; assay: Whole-cell patch clamp, membrane conductance in lung microvascular endothelial cells; assay type: cell-based, mouse
Excerpt: Animals, cells and reagents. Male CBA/J or C57BL/6 mice, as well as male TNFR ½^0/0 C57BL/6 mice deficient in TNF receptors (Bruce et al., 1996) provided by H. Bluethmann, F. Hoffmann-La Roche, Basel, Switzerland, were used at the age of 8–10 weeks. Their care was in accordance with institutional guidelines. Lung microvascular endothelial cells were isolated from CBA/J mice and characterized as described (Jackson et al., 1990) using magnetic beads (Dynabeads M-450, Dynal, Oslo, Norway), covalently bound to a purified rat-anti-mouse PECAM-1 monoclonal antibody (donated by B. Imhof, University of Geneva). Microvascular lung endothelial cells were resuspended in DMEM containing 2 mM L-glutamine, 100 U/ml penicillin, […], 20% FCS, 40 U/ml heparin and […] endothelial cell growth supplement (Brunschwig Chemie, Basel, Switzerland). For patch clamp experiments, cells were plated onto 35×10 mm easy grip Petri dishes (Beckton Dickinson, Plymouth, UK), pre-coated with 0.2% gelatin (Sigma, Buchs, Switzerland). Resident peritoneal macrophages, isolated in ice cold RPMI containing antibiotics and 10 U/ml Heparin, were left to adhere onto 35×10 mm easy grip Petri dishes for 4 h, after which the non-adherent cells were removed. Cells were grown in RPMI 1640 containing 2 mM L-glutamine, 100 U/ml penicillin, 10 μpg/ml streptomycin and 10% fetal bovine serum (all from Gibco). For patch clamp, the macrophages ware used 24 h after isolation.
Electrophysiology. Cells were pretreated for 30 min with TNF, mutTNF and tip peptides at 37° C. in a buffer consisting of 145 mM NaCl, 3 mM KCl, 2mM CaCl2, 2mM MgCl2, 10 mM D-glucose, and 10mM Hepes, and pH-adjusted with NaOH to required value. Cells were then washed with the same buffer pH-adjusted at 7.3, and experiments were performed using the tight-seal, whole-cell recording technique. Currents were recorded with an Axopatch-200A amplifier (Axon Instrument Inc, Foster City, Calif., USA), low pass-filtered at 1 kHz. Digitalization and off-line analysis was performed using the WCP program (J. Dempster, Strathclyde Electrophysiology Software, Glasgow, UK). Patch pipettes were pulled from borosilicate glass and fire polished to have an open resistance of 3–5 MW with an internal solution containing […], 2 mM MgCl2, 10mM EGTA, 20 mM TEA-Cl, 10 mM D-glucose 10 mM Hepes, pH-adjusted to 7.3 with CsOH. Series resistances were kept under 10 MW. Capacitance and series resistance compensation were applied and set to 70%. All experiments were done at room temperature. Results are given as mean ±SEM, unless otherwise indicated. Analysis of variance was performed on currents and membrane conductance values, with post-hoc Dunn-Bonferroni test for significance of differences observed between two groups. A P value of 0.05 was considered significant.

[3] = Chloride efflux from SPQ-containing liposomes
Method: Preparation of liposomes. Large unilamellar liposomes were prepared by reverse phase evaporation as previously described (Vecsey-Semjen et al., 1996). Liposomes were prepared of either 100% egg phosphatidylglycerol (EPG) or a mixture of EPC and EPG (1:1 W/W) in a buffer containing 100 mM KCl, 20 mM N-[2-Hydroxyethyl]piperazine-N′-[2-ethane-sulfonic acid] (HEPES), pH 7.4 and 1.5 mg/ml of 6-methoxy-N-(3-sulfopropyl)quinolinium (SPQ).
Choride efflux measurements. All fluorescence experiments were carried out using a PTI spectrofluorometer equipped with a thermostated cell holder (37° C.). The dye was excited at 350 nm and emission was recorded at 422 nm, both excitation and emission band widths were set to 5 nm. Liposomes were diluted to a final concentration of 50 μg/ml in a solution containing 100 mM KNO3 and 20 mM MES pH 6.1 or 20 mM HEPES, pH 7.4. Wild type and mutant TNF were added to a final concentration of 3 μg/ml.

[4] = tested on: resident peritoneal macrophages from mice deficient in both TNF receptor-1 and -2; assay: Whole-cell patch clamp in resident peritoneal macrophages of TNFR1/2-deficient mice; assay type: cell-based, mouse; details: cells lacking TNF receptors
Excerpt: as §1, §2

[5] = compared to wild-type mTNF in vivo; cited from earlier work
trypanosome = details: compared to wild type TNF; cited from earlier work
[6] = tested on: murine model of peritonitis; details: cited from earlier work
[7] = Quenching of tryptophan fluorescence by brominated lipids; details: acidic pH
Excerpt: In order to investigate whether chloride efflux was due to membrane binding or membrane insertion of TNF, we have analyzed whether brominated lipids were able to quench the intrinsic fluorescence of TNF and mutTNF upon membrane interaction. Brominated lipids have been useful in determining the topology of membrane proteins (Bolon et al., 1990) (Markello et al., 1985) as well as studying the membrane interaction of pore-forming toxins (Gonzalez-Manas et al., 1992) (Van der Goot et al., 1991) (Vecsey-Semjen et al., 1997). TNF contains two tryptophan residues, one at the top of the receptor binding domain and one at the top of the so called tip domain. If the tip of the TNF trimer were to insert into the lipid bilayer, the fluorescence of Trp-113 should be quenched upon insertion into liposomes composed of dioleoylphosphatidylglycerol that had bromines attached at positions 9 and 10 of the acyl chains. We have indeed previously observed that tryptophans located at the boundary between the lipid head groups and the acyl chains were succeptible to bromide quenching.

[8] = Tryptophan fluorescence (acidic unfolding); assay type: physicochemical
Method: Tryptophan fluorescence. Fluorescence measurements were made with a PTI spectrofluorimeter. The excitation wavelength was 295 nm and slit widths were 5 nm and 2.5 nm for excitation and emission respectively. For each recorded spectrum, the Raman scatter contribution was removed by subtraction of a buffer blank. All buffers contained 150 mM NaCl, and 20 mM of N-[2-morpholino] ethane-sulfonic acid (MES) buffer at the desired pH. The samples were allowed to incubate for 1 h 30 at the desired pH before measuring the emission spectrum. The wild type and mutant TNF concentrations were 6 μg/ml.

[9] = 30 min preincubation at acidic pH (pH 6), TNF, mutTNF 100 ng/ml, peptides 100 μg/ml

Molecule	start of weight loss (isolated rat lungs)	whole cell current [1]	induced increase in conductance in presence of amiloride ([2]; 100 μM amiloride added during pretreatment at pH 6.0)	whole cell current / membrane conductance [2, 9]	whole cell current / membrane conductance ([2]; preincubation at pH 7.3 (neutral pH))	change in SPQ fluorescence / interaction with membranes ([3]; peptide concentrations up to 300 μg/ml, neutral, acidic or 1:1 lipids)	whole cell current [4]	systemic toxicity [5]	trypanolytic and lectin-like affinity to oligosaccharides (trypanosome)	peritonitis-protective effect [6]	fluorescence quenching by brominated lipids [7]	acidic unfolding ([8]; acidification of the medium)	maximum emission of tryptophan fluorescence ([8]; pH 4.6)	maximum emission of tryptophan fluorescence ([8]; pH 6)	chloride efflux (SPQ fluorescence) ([3]; 100% EPG liposomes, pH 6.1, 3 μg/ml)	interaction with membranes ([3]; neutral pH)
GG-CGPKDTPEGAELKPWYC (Biotin-GGCGPKDTPEGAELKPWYC; disulfide 3-19; listed as Mus musculus) [LTip]	started immediately	increased outward	blocked	increased outward, and inward currents	persisted at neutral pH, although less pronounced	unable to interact with membranes	also active									
B1				completely lacked the conductance activating effect				significantly reduced systemic toxicity	lacks the trypanolytic and lectin-like affinity to oligosaccharides	retains its peritonitis-protective effect	unable to see any fluorescence quenching	able to undergo acidic unfolding	339 nm	318 nm	even more pronounced than that of wild type TNF	did not interact with membranes
